From patent US9545446B2, “Agonists of guanylate cyclase and their uses” (priority 2013, dated 2017)
Bridges are numbered along the chain shown (N, C = ends). Where no end group is shown, it is not given here. [ ]: non-standard residue; d: D form.

Tests used:
[1] = Phase 1 pharmacokinetic sampling (systemic absorption after oral dose); format: in vivo, human; conditions: oral doses <10 mg
Description: Phase 1 pharmacokinetic sampling indicated no detectable (limit of quantitation=1 ng/mL) systemic absorption of SP-333 following oral doses <10 mg; it is therefore highly unlikely that a single oral dose of 6 mg SP-333 will result in any systemic exposure.

healthy subjects = assay: Phase I single ascending oral dose study of SP-333; format: in vivo, human
Description: Two phase 1 clinical studies with SP-333 have been completed to date and a Phase 2 trial in OIC is in progress. In the Phase I single ascending oral dose study, conducted in 64 healthy subjects, the following doses of SP-333 were tested: 0.1, 0.3, 1, 3, 10, 20, 30, and 60 mg. […] Diarrhea was the most common adverse event and was generally dose-related, with 1 mg being the threshold dose. The time to onset of diarrhea was variable but tended to decrease with increasing doses from 4 to 2 hours or less. The number of subjects with watery bowel movement rose from none (<3 mg) to 2 of 6 (3, 10 and 20 mg) to 4 of 6 (30 mg). The majority of these episodes was mild, occurred once, and was associated with urgency and in some cases mild cramping. There were no SAEs.

healthy volunteers = assay: Phase I multiple ascending dose study of SP-333; format: in vivo, human
Description: […] The maximum tolerated dose was 30 mg with 60 mg deemed an intolerable dose due to 2 instances of fecal incontinence or soiling in the 7 patients dosed with 60 mg SP-333.

[2] = system: patients scheduled to undergo colonoscopy; assay: Phase 1 pilot clinical study: oral SP-333 as adjunct to SUPREP Bowel Prep Kit for cleansing of the colon prior to colonoscopy; format: in vivo, human
Description: This clinical study outlined above was designed to assess the effect of a single oral dose of 6 mg SP-333 when given concurrently with a standard pre-colonoscopy bowel prep—the SUPREP® Bowel Prep Kit (Braintree Laboratories, Braintree, Mass. 02185, USA). The investigator is a highly experienced gastroenterologist and oversaw all study activities and performed all colonoscopies per their usual routine.
• 1. Take Study Drug approximately 30 minutes before the start of the first bottle of the bowel prep kit. • 2. Take a 6 ounce bottle of study preparation and pour the entire contents into the mixing cup provided. Fill the cup with cool water to the fill line (16 ounces) and drink the entire cup of solution. • 3. Drink two (2) 16 ounce glasses of WATER over the next hour. Fill the mixing cup with water up to the fill line (16 ounces) and drink the entire glass. Morning of Colonoscopy
At least 3 hours prior to colonoscopy: • 1. Take the second 6 ounce bottle of study preparation and pour the entire contents into the mixing cup provided. Fill the cup with cool water to the fill line (16 ounces) and drink the entire cup of solution. • 2. Drink two (2) 16 ounce glasses of WATER over the next hour. Fill the mixing cup with water up to the fill line (16 ounces) and drink the entire glass. • Patient must complete the solution and additional water at least 2 hours before colonoscopy.
The primary endpoint of this study was bowel preparation treatment success as determined by the investigator (bowel preparation will be rated by the Investigator as “Excellent”, “Good”, “Fair” or “Poor”). A successful bowel preparation treatment is defined as bowel cleansing graded either “Excellent” or “Good” by the investigator (See Table 10).
Patients were consented for the study at the same time that informed consent was obtained for the colonoscopy procedure. Each successfully consented & recruited patient took a single dose of 6 mg SP-333 in the evening before the colonoscopy—approximately 30 minutes prior to ingestion of the first bottle of the SUPREP® Bowel Prep Kit (See Section entitled “Patient Instructions for SUPREP® Bowel Prep Kit” above).
Bowel preparation treatment success rate was described; formal hypothesis testing was not performed.
The volume of intra-procedural water required to improve visualization, the proximal insertion depth of the colonoscope and whether or not the right colon and cecum were completely visualized were recorded in the Colonoscopy Procedure Record.

intestinal GC-C receptor = intestinal GC-C receptor (Homo sapiens, UniProt P25092); assay: in vitro and in vivo pharmacology studies (GC-C agonism); conditions: several in vitro and in vivo pharmacology studies
[3] = 6 mg oral daily dose, healthy volunteers
[4] = 6 mg SP-333 added to standard colonoscopy cleansing preparation (SUPREP), 9 patients

Chain of intestinal GC-C receptor (P25092 24-1073): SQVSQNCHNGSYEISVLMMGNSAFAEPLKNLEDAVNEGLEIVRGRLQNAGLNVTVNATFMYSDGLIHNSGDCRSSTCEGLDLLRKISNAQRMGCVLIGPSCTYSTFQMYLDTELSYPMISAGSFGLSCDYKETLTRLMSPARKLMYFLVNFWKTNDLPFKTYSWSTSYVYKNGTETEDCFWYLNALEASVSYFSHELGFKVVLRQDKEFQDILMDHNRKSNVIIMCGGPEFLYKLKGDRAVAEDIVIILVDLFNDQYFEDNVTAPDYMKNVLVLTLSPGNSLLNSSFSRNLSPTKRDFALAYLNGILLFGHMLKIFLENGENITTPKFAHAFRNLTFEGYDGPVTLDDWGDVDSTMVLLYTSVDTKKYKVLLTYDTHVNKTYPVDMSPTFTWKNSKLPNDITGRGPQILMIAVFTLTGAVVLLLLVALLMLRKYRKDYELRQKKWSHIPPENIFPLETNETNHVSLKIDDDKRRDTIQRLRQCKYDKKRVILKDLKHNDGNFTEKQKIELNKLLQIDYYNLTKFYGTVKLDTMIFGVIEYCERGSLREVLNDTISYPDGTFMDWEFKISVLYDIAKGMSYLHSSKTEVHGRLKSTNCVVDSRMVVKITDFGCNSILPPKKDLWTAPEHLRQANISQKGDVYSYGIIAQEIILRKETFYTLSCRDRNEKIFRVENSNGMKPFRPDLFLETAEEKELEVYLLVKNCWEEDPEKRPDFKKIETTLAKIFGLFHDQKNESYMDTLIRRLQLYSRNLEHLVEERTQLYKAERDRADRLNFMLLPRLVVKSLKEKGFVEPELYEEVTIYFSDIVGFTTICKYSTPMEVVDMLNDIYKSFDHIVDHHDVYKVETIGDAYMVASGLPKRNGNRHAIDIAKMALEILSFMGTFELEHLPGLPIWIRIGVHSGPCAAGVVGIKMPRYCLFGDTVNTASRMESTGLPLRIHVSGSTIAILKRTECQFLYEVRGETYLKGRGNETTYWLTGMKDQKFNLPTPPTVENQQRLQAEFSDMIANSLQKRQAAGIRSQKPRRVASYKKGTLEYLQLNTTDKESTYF

dAsn^1-Asp^2-Glu^3-Cys^4-Glu^5-Leu^6-Cys^7-Val^8-Asn^9-Val^10-Ala^11-Cys^12-Thr^13-Gly^14-Cys^15-dLeu^16 ([dN]DECELCVNVACTGC[dL]; disulfide 4-12, 7-15) [SP-333]
systemic absorption (not detectable; limit of quantitation) [1]: < 1 ng/mL
severity of the majority of watery bowel movement episodes (healthy subjects; occurred once, associated with urgency, in some cases mild cramping): mild
changes in clinical laboratory test results, ECG or vital signs (healthy subjects; single ascending oral dose): No clinically meaningful changes
serious adverse events (SAEs) (healthy subjects; single ascending oral dose): no SAEs
threshold dose for diarrhea (healthy subjects; single ascending oral dose): 1 mg
most common adverse event (healthy subjects; single ascending oral dose, generally dose-related): Diarrhea
number of subjects with watery bowel movement (healthy subjects; single oral dose 30 mg): 4 of 6
number of subjects with watery bowel movement (healthy subjects; single oral dose 3, 10 and 20 mg): 2 of 6
number of subjects with watery bowel movement (healthy subjects; single oral dose <3 mg): none
overall safety and tolerability (healthy subjects; single oral doses 0.1, 0.3, 1, 3, 10, 20, 30, 60 mg, 64 healthy subjects): safe and well tolerated
time to onset of diarrhea (healthy subjects; variable, tended to decrease with increasing doses, to 2 hours or less): 4 to 2 hours
additional AEs (healthy volunteers; [3]): No additional AEs of note
effect of dose in Phase 1 studies (basis of dose selection) (healthy volunteers; [3]): self-limited diarrhea (watery stools) with mild urgency
instances of fecal incontinence or soiling (healthy volunteers; 60 mg daily for 7 days, 7 patients dosed): 2
changes in hematology, clinical chemistry, or urinalysis parameters (healthy volunteers; any dose level): no clinically meaningful changes
changes in vital sign or ECG parameters (healthy volunteers; any dose level): no clinically meaningful changes
overall safety and tolerability (healthy volunteers; daily 0.3, 1, 3, 10, 30 mg for 14 days or 60 mg for 7 days, 89 subjects): generally safe and well-tolerated
maximum tolerated dose (healthy volunteers; daily doses for 14 days): 30 mg
intolerable dose (healthy volunteers; daily for 7 days, due to fecal incontinence or soiling): 60 mg
most commonly reported TEAEs (treatment-emergent adverse events) (healthy volunteers; mild or moderate intensity): gastrointestinal disorders (primarily diarrhea and defecation urgency)
subjects with a serious adverse event (SAE) (healthy volunteers; multiple ascending dose): no subject
subjects withdrawn from the study due to a TEAE (healthy volunteers; multiple ascending dose): no subject
colonoscopy procedure outcome [2, 4]: safe and successful procedure
visualization of the colon as observed by the gastroenterologist [2, 4]: better visualization of the entire colon
tolerability of combination with standard colonoscopy preparation ([2]; single oral 6 mg SP-333 evening before colonoscopy plus SUPREP Bowel Prep Kit, 9 patients): very well
ease of preparation as judged by subjects with previous colonoscopies ([2]; versus past colon cleansing preparation without SP-333): much easier
agonism of the intestinal GC-C receptor (intestinal GC-C receptor): potent agonist
